In patent US20240240203A1:

Target: Ad5 hexon capsid protein with DogTag inserted into the HVR5 loop, on Ad5 virions (Ad5-HVR5-DogTag) (human adenovirus serotype 5 (Ad5)) (UniProt P04133)

Substance: polyhistidine-tagged recombinant DogCatcher with 18 copies of the NANP repeat sequence from the Plasmodium falciparum circumsporozoite protein fused to the C-terminus
- ligand coverage (% hexon): > 90%
